From doi:10.1101/2020.03.02.973859 come the findings set out here.

The assay concerns the target T1, K+/Cl- co-transporter KCC2 (mouse (endogenous in mouse forebrain)), Q91V14.
T1 chain: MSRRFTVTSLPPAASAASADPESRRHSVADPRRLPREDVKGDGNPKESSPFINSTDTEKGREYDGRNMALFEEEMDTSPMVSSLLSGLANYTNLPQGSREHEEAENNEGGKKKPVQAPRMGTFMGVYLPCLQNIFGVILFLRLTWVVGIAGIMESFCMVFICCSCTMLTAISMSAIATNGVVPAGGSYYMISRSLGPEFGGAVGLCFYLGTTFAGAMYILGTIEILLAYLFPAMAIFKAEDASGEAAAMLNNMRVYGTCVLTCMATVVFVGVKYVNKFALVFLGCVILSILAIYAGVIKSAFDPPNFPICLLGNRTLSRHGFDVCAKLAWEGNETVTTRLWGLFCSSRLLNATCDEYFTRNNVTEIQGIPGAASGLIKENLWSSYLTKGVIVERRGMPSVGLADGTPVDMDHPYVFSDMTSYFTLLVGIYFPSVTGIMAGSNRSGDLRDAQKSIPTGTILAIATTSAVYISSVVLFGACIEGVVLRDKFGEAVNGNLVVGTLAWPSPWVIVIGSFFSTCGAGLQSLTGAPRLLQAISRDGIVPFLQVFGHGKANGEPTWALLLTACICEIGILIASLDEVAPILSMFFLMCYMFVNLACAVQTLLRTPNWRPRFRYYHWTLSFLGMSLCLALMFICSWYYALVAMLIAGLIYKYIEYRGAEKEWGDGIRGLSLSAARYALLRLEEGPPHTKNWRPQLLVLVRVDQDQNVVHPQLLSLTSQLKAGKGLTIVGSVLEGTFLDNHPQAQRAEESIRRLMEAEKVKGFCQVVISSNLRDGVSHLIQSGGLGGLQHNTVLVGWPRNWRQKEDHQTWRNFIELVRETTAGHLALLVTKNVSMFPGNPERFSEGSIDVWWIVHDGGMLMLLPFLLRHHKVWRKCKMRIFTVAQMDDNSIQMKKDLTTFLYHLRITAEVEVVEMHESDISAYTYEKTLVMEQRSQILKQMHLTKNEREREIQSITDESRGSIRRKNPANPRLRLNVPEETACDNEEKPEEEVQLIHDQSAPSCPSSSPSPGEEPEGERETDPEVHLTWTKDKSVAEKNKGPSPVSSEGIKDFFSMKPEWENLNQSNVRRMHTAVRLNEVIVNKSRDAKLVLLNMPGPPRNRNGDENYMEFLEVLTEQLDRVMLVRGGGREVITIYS
Nature of the assay: native gel or EMSA. As to conditions: remark: other sources report otherwise. In general terms: Mobility shift assays separate free from complexed probe on a gel.

B1: K+/Cl- co-transporter KCC2, Q91V14 1-1138 (natural protein)
chain: MSRRFTVTSLPPAASAASADPESRRHSVADPRRLPREDVKGDGNPKESSPFINSTDTEKGREYDGRNMALFEEEMDTSPMVSSLLSGLANYTNLPQGSREHEEAENNEGGKKKPVQAPRMGTFMGVYLPCLQNIFGVILFLRLTWVVGIAGIMESFCMVFICCSCTMLTAISMSAIATNGVVPAGGSYYMISRSLGPEFGGAVGLCFYLGTTFAGAMYILGTIEILLAYLFPAMAIFKAEDASGEAAAMLNNMRVYGTCVLTCMATVVFVGVKYVNKFALVFLGCVILSILAIYAGVIKSAFDPPNFPICLLGNRTLSRHGFDVCAKLAWEGNETVTTRLWGLFCSSRLLNATCDEYFTRNNVTEIQGIPGAASGLIKENLWSSYLTKGVIVERRGMPSVGLADGTPVDMDHPYVFSDMTSYFTLLVGIYFPSVTGIMAGSNRSGDLRDAQKSIPTGTILAIATTSAVYISSVVLFGACIEGVVLRDKFGEAVNGNLVVGTLAWPSPWVIVIGSFFSTCGAGLQSLTGAPRLLQAISRDGIVPFLQVFGHGKANGEPTWALLLTACICEIGILIASLDEVAPILSMFFLMCYMFVNLACAVQTLLRTPNWRPRFRYYHWTLSFLGMSLCLALMFICSWYYALVAMLIAGLIYKYIEYRGAEKEWGDGIRGLSLSAARYALLRLEEGPPHTKNWRPQLLVLVRVDQDQNVVHPQLLSLTSQLKAGKGLTIVGSVLEGTFLDNHPQAQRAEESIRRLMEAEKVKGFCQVVISSNLRDGVSHLIQSGGLGGLQHNTVLVGWPRNWRQKEDHQTWRNFIELVRETTAGHLALLVTKNVSMFPGNPERFSEGSIDVWWIVHDGGMLMLLPFLLRHHKVWRKCKMRIFTVAQMDDNSIQMKKDLTTFLYHLRITAEVEVVEMHESDISAYTYEKTLVMEQRSQILKQMHLTKNEREREIQSITDESRGSIRRKNPANPRLRLNVPEETACDNEEKPEEEVQLIHDQSAPSCPSSSPSPGEEPEGERETDPEVHLTWTKDKSVAEKNKGPSPVSSEGIKDFFSMKPEWENLNQSNVRRMHTAVRLNEVIVNKSRDAKLVLLNMPGPPRNRNGDENYMEFLEVLTEQLDRVMLVRGGGREVITIYS
In turn, B1 registered a stoichiometry N of 2.

A word on the stoichiometry N: it is a count of units in the complex or per binding partner.
